The results in this text go back to publication PMC11109203 (Nature Communications, 2024).

First the molecules themselves.
B4: Clr3 (untagged) (enzyme, S. pombe, UniProt P56523 1-687, looked up)
chain: MLASNSDGASTSVKPSDDAVNTVTPWSILLTNNKPMSGSENTLNNESHEMSQILKKSGLCYDPRMRFHATLSEVDDHPEDPRRVLRVFEAIKKAGYVSNVPSPSDVFLRIPAREATLEELLQVHSQEMYDRVTNTEKMSHEDLANLEKISDSLYYNNESAFCARLACGSAIETCTAVVTGQVKNAFAVVRPPGHHAEPHKPGGFCLFNNVSVTARSMLQRFPDKIKRVLIVDWDIHHGNGTQMAFYDDPNVLYVSLHRYENGRFYPGTNYGCAENCGEGPGLGRTVNIPWSCAGMGDGDYIYAFQRVVMPVAYEFDPDLVIVSCGFDAAAGDHIGQFLLTPAAYAHMTQMLMGLADGKVFISLEGGYNLDSISTSALAVAQSLLGIPPGRLHTTYACPQAVATINHVTKIQSQYWRCMRPKHFDANPKDAHVDRLHDVIRTYQAKKLFEDWKITNMPILRDSVSNVFNNQVLCSSNFFQKDNLLVIVHESPRVLGNGTSETNVLNLNDSLLVDPVSLYVEWAMQQDWGLIDINIPEVVTDGENAPVDILSEVKELCLYVWDNYVELSISKNIFFIGGGKAVHGLVNLASSRNVSDRVKCMVNFLGTEPLVGLKTASEEDLPTWYYRHSLVFVSSSNECWKKAKRAKRRYGRLMQSEHTETSDMMEQHYRAVTQYLLHLLQKARPTSQ
notes: Clr3, histone deacetylase, S. pombe; source: E. coli Rosetta, purified (Ni-NTA, Ulp1 digestion, Superdex); not shown: 6*His-Sumo, N-terminal, cleaved

What all share (settings): both partners purified
Experiment [1] deals with T1, S. pombe H2AB fusion protein (H2B_(32-126)-H2A_(15-108)) (S. pombe, UniProt P04913 32-126; P04909 15-108).
T1 construct: histone H2A, S. pombe, residues 15-108; No linker between the two parts is told; Modified pCDF-Duet vector, His tag followed by a 3C site; also called single-chain fusion of H2A and H2B; H2A-H2B fusion protein; source: E. coli Rosetta, purified (3C digestion, Superdex); not shown: 6*His, N-terminal, cleaved
T1 sequence (P04913 other isoform, or with tags, fused parts or gaps): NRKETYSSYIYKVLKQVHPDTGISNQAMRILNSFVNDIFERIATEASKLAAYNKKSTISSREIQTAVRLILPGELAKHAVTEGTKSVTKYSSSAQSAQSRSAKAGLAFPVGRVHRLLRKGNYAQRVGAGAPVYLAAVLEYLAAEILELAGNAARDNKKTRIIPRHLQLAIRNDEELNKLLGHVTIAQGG
The experiment is described as follows: ITC; MicroCal ITC200, 20 °C; 25 mM Tris-HCl pH 8.0, 400 mM NaCl, 2 mM DTT; Sad1 (500 μM) titrated into H2AB (50 μM). A general note: Isothermal titration calorimetry measures the heat released or taken up as one component is titrated into another.

Experiment [2] deals with T2, GST-Sad1_(1-169) with H2AB (Sad1-H2AB complex of the pull-downs) (S. pombe, UniProt Q09825 1-169; P04913 32-126; P04909 15-108).
T2 construct: histone H2A, S. pombe, residues 15-108; m1 with m5; source: E. coli Rosetta, purified proteins mixed; not shown: GST, N-terminal, kept; 6*His, N-terminal, cleaved
T2 sequence (P04913 other isoform, or with tags, fused parts or gaps): as above
The experiment is described as follows: pull-down; GST-Sad1_(1-169) on glutathione beads with silencing factors in the presence of H2AB; same buffer as the histone pull-downs.

The experiment “Clr3 (untagged)” deals with B4. The experiment is described as follows: pull-down; GST-Sad1_(1-169) on glutathione beads with Sumo-Sir2 or untagged Clr3, in the absence of H2AB; same buffer as the histone pull-downs.
In a further experiment the target is T3, FITC labeled Clr3 (S. pombe, UniProt P56523 1-687, FITC label).
T3 construct: Clr3, histone deacetylase, S. pombe; source: E. coli Rosetta, purified, labeled with the EZLabel Protein FITC Labeling Kit
T3 sequence (looked up): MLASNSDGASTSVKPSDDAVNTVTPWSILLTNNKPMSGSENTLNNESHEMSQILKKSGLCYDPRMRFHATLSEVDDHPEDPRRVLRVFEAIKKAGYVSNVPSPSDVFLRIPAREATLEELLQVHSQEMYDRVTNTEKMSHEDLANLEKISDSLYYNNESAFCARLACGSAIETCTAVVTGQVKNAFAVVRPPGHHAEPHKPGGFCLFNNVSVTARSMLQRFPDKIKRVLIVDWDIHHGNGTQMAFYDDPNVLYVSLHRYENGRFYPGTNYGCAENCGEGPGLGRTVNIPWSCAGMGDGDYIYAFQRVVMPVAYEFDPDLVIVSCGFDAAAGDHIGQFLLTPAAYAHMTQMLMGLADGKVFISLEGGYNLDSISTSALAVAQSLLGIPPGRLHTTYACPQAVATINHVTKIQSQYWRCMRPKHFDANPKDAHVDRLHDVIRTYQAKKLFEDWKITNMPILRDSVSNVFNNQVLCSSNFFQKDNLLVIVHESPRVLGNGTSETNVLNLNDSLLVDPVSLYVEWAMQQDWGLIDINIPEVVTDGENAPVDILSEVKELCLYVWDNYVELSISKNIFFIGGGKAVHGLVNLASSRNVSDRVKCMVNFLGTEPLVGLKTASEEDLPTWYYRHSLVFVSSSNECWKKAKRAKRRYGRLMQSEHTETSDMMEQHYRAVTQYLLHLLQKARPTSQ
The experiment is described as follows: MST; Monolith NT.115; 25 mM HEPES pH 7.5, 150 mM NaCl, 2 mM DTT; 20 nM FITC labeled Clr3; ligands (500 μM Sad1_(1-169) or 250 μM Sad1_(1-169)-H2AB complex) diluted by 12 gradients; medium MST power, 80% LED.

For orientation: Kd means the equilibrium constant for the complex coming apart.

B1: Sad1_(60-169) (domain or fragment, S. pombe, UniProt Q09825 60-169, looked up)
chain: ESITPKQRFPAPNFEQAYHSNIRYEQEESDNEEFENVVKNGHEASTNVFYESDGDDEEFVNEEYENSIDEESDDEGYSLNEDTTATNASFRYPMNQRSTRKSQFYSSKFK
notes: source: E. coli Rosetta, purified; not shown: GST, N-terminal, cleaved
Take B1: in experiment [1], the binding result is on record as “binds”.

B2: Sad1_(60-169) with charge-reverse mutations of D114 and E117 (domain or fragment)
chain: ESITPKQRFPAPNFEQAYHSNIRYEQEESDNEEFENVVKNGHEASTNVFYESDGRDERFVNEEYENSIDEESDDEGYSLNEDTTATNASFRYPMNQRSTRKSQFYSSKFK
Consider B2, for which the “fold decrease of binding affinity against wild-type Sad1_(60-169)” value in experiment [1] amounted to 5.6 fold.

B3: Sad1_(60-169) F118A (domain or fragment, S. pombe, UniProt Q09825 60-169, looked up)
chain: ESITPKQRFPAPNFEQAYHSNIRYEQEESDNEEFENVVKNGHEASTNVFYESDGDDEEAVNEEYENSIDEESDDEGYSLNEDTTATNASFRYPMNQRSTRKSQFYSSKFK
notes: also called Sad1 F118A; source: E. coli Rosetta, purified; not shown: GST, N-terminal, cleaved
For the molecule B3, in experiment [1], the binding result is “binds”.
With B4, the binding result in experiment [2] is listed as “binds”.

B5: GST-Sad1_(1-169) (domain or fragment, S. pombe, UniProt Q09825 1-169, looked up)
chain: MFTNTPVGGKRERQNGAHPAWSTLGANSAQIHQNTADLASKMHKLRYTKIRSPPTRVSIESITPKQRFPAPNFEQAYHSNIRYEQEESDNEEFENVVKNGHEASTNVFYESDGDDEEFVNEEYENSIDEESDDEGYSLNEDTTATNASFRYPMNQRSTRKSQFYSSKFK
notes: pGEX-6P-1 vector; source: E. coli Rosetta, purified (glutathione Sepharose 4B, eluted with reduced glutathione, Superdex); not shown: GST, N-terminal, kept
Consider B5, for which the binding result with Clr3 (untagged) is reported as “binds”.

B6: Sad1_(1-169) (domain or fragment, S. pombe, UniProt Q09825 1-169, looked up)
chain: MFTNTPVGGKRERQNGAHPAWSTLGANSAQIHQNTADLASKMHKLRYTKIRSPPTRVSIESITPKQRFPAPNFEQAYHSNIRYEQEESDNEEFENVVKNGHEASTNVFYESDGDDEEFVNEEYENSIDEESDDEGYSLNEDTTATNASFRYPMNQRSTRKSQFYSSKFK
notes: Cleavage is told in general for proteins not needed with their tag; used in ITC, SEC and MST; also called Sad1NTD; source: E. coli Rosetta, purified (glutathione Sepharose 4B, 3C digestion on beads, Superdex); not shown: GST, N-terminal, cleaved
On to B6, for which the Kd in experiment [1] is 9.5 µM. Also, the binding result with FITC labeled Clr3 is recorded as “binds”.

B7: Sumo-Sir2 fusion protein (enzyme, S. pombe, UniProt O94640 1-475, looked up)
chain: MASNPLDNNMPTTPVEEKIPVASYSPSSSGSSSGASLLVDIMCGSKETEDEEVDSDEWDKPETENISDLDERSEMVRYLRASGYAKFLEKYLIEEELPVRSILKKLGINLPSALEEFEDIDLLPLLKEVLKREVARRIKLPHFNTFEDVVNLLKKAKNVVVLVGAGISTSLGILDFRSDNGFYARLARHGLSEPSEMFDIHTFRENPEIFYTFARDLLPETNHYSPSHAFIRLLEKKNKLSTLFTQNIDNLEKKTGLSDNKIIQCHGSFATATCIKCKHKVDGSELYEDIRNQRVSYCNECGKPPLKLRRVGQNKKEKHYFSDGDSESSEDDLAQPGIMKPDITFFGEALPDSFFNKVGSGELEETDLLICIGTSLKVAPVSELISVIPPTTPQIYISRTPVRHTQFDVNFLSPYCDWVIVEICKRAGWLNELQALCDLPECHSGSKTRAFETDLDIKFEEPSTYHITSTTNGSC
notes: Sir2, histone deacetylase, S. pombe; The legend says that some untagged Sir2 from self-proteolysis was present; source: E. coli Rosetta, purified (Ni-NTA, eluted with imidazole, Superdex); not shown: 6*His-Sumo, N-terminal, kept
Regarding B7, the binding result in experiment [2] was “binds”.
